Measured values taken from patent publication US20240141047A1 (AGENUS, published 2024).

Target: T1, human TIGIT fused to Fc (human, UniProt Q495A1 22-141)
T1 construct: Called a dimeric form of TIGIT; also called human TIGIT-Fc; human dimeric TIGIT-Fc; not shown: Fc
T1 sequence: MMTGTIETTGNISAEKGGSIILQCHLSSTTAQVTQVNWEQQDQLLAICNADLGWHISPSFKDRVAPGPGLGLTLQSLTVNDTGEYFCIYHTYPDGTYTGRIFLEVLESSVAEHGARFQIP
Experiment: SPR, human TIGIT-Fc captured on CM5 chip, BA002 Fab in solution, 1:1 model
Method: Briefly, surface plasmon resonance experiments were performed using a Biacore T200 instrument, and the association rate (Kₐ), dissociation rate (Kd), and dissociation constant (KD) were calculated from each experiment using a 1:1 binding model with Biacore T200 Evaluation Software.
In a similar experiment measuring binding of a monovalent form of BA002 to human TIGIT-Fe, human TIGIT-Fc was captured on flow-cell 2 of a CM5 chip, keeping flow-cell 1 as reference, at a flow rate of 5 μL/min. […] The higher calculated dissociation rate between human TIGIT-Fc and BA002 Fab, relative to the calculated dissociation rate between human TIGIT-Fc and full-length BA002 described above, is consistent with the presence of an avidity effect with the bivalent form of BA002.

B1: BA002 in Fab format (Fab, V domains shown)
VH: EVQLVQSGAEVEKPGASVKVSCKASGYTFASYGISWVRQAPGQGLEWMGGITPFFNRVDVAEKFQGRVTITADTSTNTVYIELSSLTSEDTAVYYCARDLRRGGVGDAFDIWGRGTLVTVSS
VL: QSALTQPRSVSGSPGQSVTISCTGTSSDVGSHNYVSWYQQHPGKAPQLMIYEVSYRPSEISNRFSGSKSGNTASLTISGLQPEDEADYYCSSYTPSSATVFGAGTKLTVLG
modifications: chain 1 pos 1: glutamate or pyroglutamate (from Glu), written E; chain 2 pos 1: glutamine or pyroglutamate (from Gln), written Q
notes: also called BA002 Fab; monovalent form of BA002
  Kd: 6.8 nM
  koff: 0.019 s⁻¹
  kon: 2.8e+06 M⁻¹ s⁻¹
